Substrate in data set [1]: Cc1cc2nc3c(=O)[nH]c(=O)nc-3n(C[C@H](O)[C@H](O)[C@H](O)COP(=O)(O)OP(=O)(O)OC[C@H]3O[C@@H](n4cnc5c(N)ncnc54)[C@H](O)[C@@H]3O)c2cc1C
As to the kind of experiment: HPLC fluorescence of FMN product, Michaelis-Menten fit. It is filed as biochemical, Saccharomyces cerevisiae. Particulars: 4 mM CoCl2, 200 mM KCl, 100 mM Hepes-KOH pH 7.0, 30 °C. From the text:
HPLC fluorescence of FMN product, Michaelis-Menten fit on Fpy1p

Data set [2] concerns the molecule itself. Nature of the data set: SEC; gel filtration on Superdex 200 10/300 in 50 mM potassium phosphate pH 7.5, 150 mM KCl, 100 mM L-arginine HCl, 0.1% Tween-20, 1 mM THP; calibrated with standards of 12.4-200 kDa; Fpy1p detected in fractions by enzymatic assay. On the technique in general: Size exclusion chromatography separates by hydrodynamic size, large species first.

B1: Fpy1p (protein encoded by YMR178w), recombinant with V5 epitope and 6xHis tag (enzyme, S. cerevisiae, UniProt Q03219 1-274, looked up)
chain: MVKVTAACIIIGDEVLNGKVVDTNSTFFAKYCFDHGIQLKEIATIGDDETQIVDTVRRLVKNYDFIISTGGIGPTHDDITYECMAKSFNLPCELDEECKERMRHKSDPEARLDADALKAHYQMATMPKGTNVKNYYVCDDLWVPICSISHKMYILPGIPQLFARMLKAFTPTLKKIYNLDKDPREYVRYFVRTHLTESQISKELKLIQDESTKVSEAIKIGSYPHFGMGFNTVSILGEKKDDSYLKSIVNRVVNNLEGEVISSELENKFSNQES
notes: Fpy1p, the pyrophosphatase encoded by ORF YMR178w of S. cerevisiae; whole open reading frame without the stop codon, amplified from the start codon; also called YMR178wp; source: S. cerevisiae strain Y258 (pYES-DEST52, galactose induction), purified (two-step IMAC: Cu2+ then Ni2+)
Usually Km stands for the concentration of substrate that gives half-maximal velocity. As usually defined, the kcat is the number of substrate molecules converted per active site and unit of time at saturation. The kcat/Km is the turnover number divided by the Michaelis constant. For orientation: stoichiometry N means the number of molecules, sites or subunits per partner or assembly. For the protein B1, in data set [1], the Km was 16.1 ± 2.1 µM, the turnover number (kcat) came out at 0.38 s⁻¹ and the kcat/Km is 23000 M⁻¹ s⁻¹. In addition, the “stoichiometry N” value in data set [2] is 3.

Source of the values: publication PMC6002036, “Characterization of a non-nudix pyrophosphatase points to interplay between flavin and NAD(H) homeostasis in Saccharomyces cerevisiae” (PLoS ONE, 2018).
